In patent US20240132622A1 (Bristol-Myers Squibb, published 2024):
Changes are numbered by the printed parent chain. Names and notes keep the numbering of the source. Values belong to the binder of their own block, whether it stands above or below them.

What was measured:
recombinant human PAD4 [1] = target: T1, recombinant human PAD4 (human, UniProt Q9UM07 1-663); assay: cell-based or functional assay
recombinant human PAD4 [2] = target: T1, recombinant human PAD4; assay: SPR 37 C, captured antibody, PAD4 analyte, 2 mM EDTA
Experimental: (§1) For SPR measurements, either an anti-human capture surface or Protein A surface (Cytiva catalog #29127555) was used. Anti-human capture surface was prepared by immobilizing anti-human capture antibody (Cytiva catalog #29234600) onto flow cells of a CM5 or CM4 biosensor following the manufacturer's amine coupling protocol (Cytiva catalog #BR-1006-33). SPR experiments were conducted at 37° C. using HBS-P (150 mM NaCl, 10 mM HEPES, pH 7.6, 0.05% Tween-20) (TEKNOVA catalog #H8032) with additional 150 mM NaCl and 1 mM or 2 mM CaCl₂) (see Table 2) or 2 mM EDTA (see Table 3) as running buffer. Antibodies were diluted to 1.5 μg/mL in the running buffer, and were captured across active biosensor flow cells at 10 μL/min for 15 to 30 seconds. […] The association and dissociation of the antibodies with PAD4 were measured. One 30 second injection followed by one 15 second injection of 10 mM glycine pH 1.5 was used to regenerate the Protein A capture surface between assay cycles. For anti-human capture surface, two 30 second injections of 3 M MgCl₂ was used for regeneration. SPR measurements for mAb20 and mAb 13 SPR were done in the presence of 2 mM CaCl₂). The remaining antibodies were tested in the presence of 1 mM CaCl₂).
(§2) Rate constants kₒₙ and koff were derived from reference flow cell- and 0 nM blank-subtracted sensorgrams, and were fit to a 1:1 binding model in Biacore® Insight Evaluation software version 3.0.12.15655. Deviations from 1:1 binding model were observed, which may be caused by increased dimerization of PAD4 at higher concentrations. The equilibrium dissociation constant, KD, was calculated as the ratio of rate constants koff/kₒₙ for each PAD4 antibody. For those antibodies that were tested in multiple SPR experiments, the average value and standard deviation from two or three separate experiments are listed in Tables 2 and 3.

recombinant human PAD4 [3] = target: T1, recombinant human PAD4; assay: SPR 37 C, captured antibody, PAD4 analyte, 1 mM CaCl2
Experimental: Their binding to human PAD4 was measured by Surface Plasmon Resonance (SPR). SPR measurements were performed with a Biacore® 8K, 8K+, or T200 instrument (Cytiva). The association rate constants, kₒₙ, dissociation rate constants, koff, and equilibrium dissociation constants, KD, of the antibodies with PAD4 were determined from these SPR measurements.
as §1
as §2, with “antibody.” for “antibody. For those antibodies that were tested in multiple SPR experiments, the average value and standard deviation from two or three separate experiments are listed in Tables 2 and 3.”

recombinant human PAD4 [4] = target: T1, recombinant human PAD4; assay: cell-based or functional assay; remark: listed apart in the source
recombinant human PAD4 [5] = target: T1, recombinant human PAD4; assay: cell-based or functional assay; remark: listed apart in the source
[6] = target: extracellular matrix (ECM) proteins; assay: ECM plate ELISA (Matrigel), 1 uM antibody, A450 over wells without sample
mouse PAD4 [7] = target: T2, mouse PAD4 (mouse, UniProt Q9Z183 1-666); assay: SPR 37 C, antibody on anti-murine capture surface, PAD4 analyte, 2 mM CaCl2
T2 construct: also called mPAD4; murine PAD4
Experimental: SPR Methods. In general, SPR methods were as described in Example 3 above with the following modifications. An anti-murine capture surface was used that was prepared by immobilizing anti-murine capture antibody (Cytiva catalog #BR100838) onto flow cells of a CM5 biosensor following the manufacturer's amine coupling protocol (Cytiva catalog #BR-1006-33). SPR experiments were conducted at 37° C. using HBS-P (150 mM NaCl, 10 mM HEPES, pH 7.6, 0.05% Tween-20) (TEKNOVA catalog #H8032) with additional 500 mM NaCl and 2 mM CaCl₂) as running buffer. Several concentrations of PAD4, from 0.8 nM to 150 nM were prepared using the running buffer. The association and dissociation of the antibodies with PAD4 were measured. Two 90 second injections of 10 mM glycine pH 1.7 was used to regenerate the anti-murine capture surface.

mouse PAD4 [8] = target: T2, mouse PAD4; assay: cell-based or functional assay

T1 sequence (Q9UM07 whole entry): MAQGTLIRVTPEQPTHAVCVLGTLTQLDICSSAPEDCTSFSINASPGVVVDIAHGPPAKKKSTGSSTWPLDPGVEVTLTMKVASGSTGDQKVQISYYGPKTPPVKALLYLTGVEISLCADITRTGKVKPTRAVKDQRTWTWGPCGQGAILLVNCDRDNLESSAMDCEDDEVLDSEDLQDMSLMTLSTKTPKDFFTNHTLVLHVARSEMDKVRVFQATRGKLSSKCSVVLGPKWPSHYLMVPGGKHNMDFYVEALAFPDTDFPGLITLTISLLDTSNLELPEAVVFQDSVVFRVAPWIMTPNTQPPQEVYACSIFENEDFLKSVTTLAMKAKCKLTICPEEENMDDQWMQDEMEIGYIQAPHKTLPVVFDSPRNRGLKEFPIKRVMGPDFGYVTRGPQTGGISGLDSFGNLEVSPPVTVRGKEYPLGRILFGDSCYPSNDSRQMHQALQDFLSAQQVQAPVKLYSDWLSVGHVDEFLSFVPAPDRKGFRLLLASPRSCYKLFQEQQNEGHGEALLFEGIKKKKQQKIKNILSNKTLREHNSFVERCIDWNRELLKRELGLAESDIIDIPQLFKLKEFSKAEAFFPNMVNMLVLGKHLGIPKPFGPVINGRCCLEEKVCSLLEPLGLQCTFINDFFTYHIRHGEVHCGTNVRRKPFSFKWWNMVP
T2 sequence (Q9Z183 whole entry): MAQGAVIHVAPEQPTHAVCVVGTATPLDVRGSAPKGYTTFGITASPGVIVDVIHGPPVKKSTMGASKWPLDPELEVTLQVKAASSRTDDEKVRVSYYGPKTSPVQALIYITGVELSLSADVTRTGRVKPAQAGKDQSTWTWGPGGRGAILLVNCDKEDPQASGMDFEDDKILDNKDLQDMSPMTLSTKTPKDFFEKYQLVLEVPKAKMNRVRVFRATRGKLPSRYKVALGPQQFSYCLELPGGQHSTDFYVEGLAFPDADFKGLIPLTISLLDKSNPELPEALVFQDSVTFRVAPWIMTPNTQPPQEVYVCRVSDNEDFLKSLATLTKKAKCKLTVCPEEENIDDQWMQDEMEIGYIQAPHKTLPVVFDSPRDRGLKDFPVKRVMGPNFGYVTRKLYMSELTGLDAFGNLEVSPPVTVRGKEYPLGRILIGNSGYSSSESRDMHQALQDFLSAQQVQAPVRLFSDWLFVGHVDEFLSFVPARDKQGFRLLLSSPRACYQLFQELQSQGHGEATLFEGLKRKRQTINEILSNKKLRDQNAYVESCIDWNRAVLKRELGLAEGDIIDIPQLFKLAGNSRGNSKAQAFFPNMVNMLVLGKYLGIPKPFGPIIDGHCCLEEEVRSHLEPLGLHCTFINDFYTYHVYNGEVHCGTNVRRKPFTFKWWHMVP

IC50 run 1, citrulline ELISA on peptide …, 13.5 nM rhPAD4 (recombinant human PAD4 [1]): 0.34 nM | IC50 run 1, citrulline ELISA on peptide …, 27 nM rhPAD4 (recombinant human PAD4 [1]): 1.77 nM | IC50 run 1, citrulline ELISA on peptide …, 54 nM rhPAD4 (recombinant human PAD4 [1]): 3.13 nM | IC50 run 1, citrulline ELISA on peptide …, 108 nM rhPAD4 (recombinant human PAD4 [1]): 6.03 nM | IC50 run 2, citrulline ELISA on peptide …, 13.5 nM rhPAD4 (recombinant human PAD4 [1]): 0.73 nM | IC50 run 2, citrulline ELISA on peptide …, 27 nM rhPAD4 (recombinant human PAD4 [1]): 1.26 nM | IC50 run 2, citrulline ELISA on peptide …, 54 nM rhPAD4 (recombinant human PAD4 [1]): 3.14 nM | IC50 run 2, citrulline ELISA on peptide …, 108 nM rhPAD4 (recombinant human PAD4 [1]): 4.29 nM | IC50 run 3, citrulline ELISA on peptide …, 13.5 nM rhPAD4 (recombinant human PAD4 [1]): 0.37 nM | IC50 run 3, citrulline ELISA on peptide …, 27 nM rhPAD4 (recombinant human PAD4 [1]): 0.89 nM | IC50 run 3, citrulline ELISA on peptide …, 54 nM rhPAD4 (recombinant human PAD4 [1]): 2.68 nM | IC50 run 3, citrulline ELISA on peptide …, 108 nM rhPAD4 (recombinant human PAD4 [1]): 4.65 nM | Kd (recombinant human PAD4 [2]): 0.306 nM | koff (recombinant human PAD4 [2]): 0.000358 s⁻¹ | kon (recombinant human PAD4 [2]): 1.17e+06 M⁻¹ s⁻¹ | Kd (recombinant human PAD4 [3]): 0.147 nM | koff (recombinant human PAD4 [3]): 0.000171 s⁻¹ | kon (recombinant human PAD4 [3]): 1.32e+06 M⁻¹ s⁻¹ | mean IC50, PAD4 driven H3 citrullination (ELISA), 13.5 nM PAD4, with 100 ug/ml purified IgG of NHV sera (n=6) (recombinant human PAD4 [4]): 9 nM | mean IC50, PAD4 driven H3 citrullination (ELISA), 13.5 nM PAD4, with 100 ug/ml purified IgG of RA sera (n=21) (recombinant human PAD4 [4]): 8.2 nM
B1: hz13-5 D31E (antibody, V domains shown)
VH: EVLLVQSGAEVKKPGASVKLSCTSSDFNIKEHFIHWVRQAPGKGLEWMGRIDPEDDETKYAPKFQDRVTMTADTSTDTAYMELSSLRSEDTAVFYCAGYGNYEGAMDYWGQGTLVTVSS
VL: DIQMTQSPSSLSASVGDRVTITCRASENVNNYGIGFMNWFQQKPGKAPKLLIYAASRRGSGVPSRFSGSGSGTDFTLTISSLQPEDFATYFCQQSKEVPYTFGQGTKVEIKR
notes: IgG1.3f; also called clone 13-based hz13-5 D31E

IC50 (average), PAD4 citrullination of peptide …, RapidFire MS (recombinant human PAD4 [5]): 62.8 nM | Kd (recombinant human PAD4 [2]): 0.1 nM | koff (recombinant human PAD4 [2]): 0.00016 s⁻¹ | kon (recombinant human PAD4 [2]): 1.9e+06 M⁻¹ s⁻¹ | ECM Score (1 µM) [6]: 2 | Kd (recombinant human PAD4 [3]): 0.1 nM | koff (recombinant human PAD4 [3]): 0.00014 s⁻¹ | kon (recombinant human PAD4 [3]): 1.7e+06 M⁻¹ s⁻¹
B2: hz13-8 (antibody, V domains shown)
VH: B1 VH with E31D, M48I, M70I, M81L
VL: DIQMTQSPSSLSASVGDRVTITCRASENVNNYGIGFMNWFQQKPGKAPKLLIYAASRRGSGVPSRFSGSGSGTDFTLTISSLQPEDFATYFCQQSKEVPYTFGQGTKVEIK
notes: light constant region not tied to this antibody

Second part, the binder before the results:

B3: hz13-9 (antibody, V domains shown)
VH: B1 VH with E31D, M48I, M70I, M81L
VL: B2 VL with Q3V, I21L, L82M, V108L
notes: as for B2
IC50 (average), PAD4 citrullination of peptide …, RapidFire MS (recombinant human PAD4 [5]): 76 nM | Kd (recombinant human PAD4 [2]): 0.1 nM | koff (recombinant human PAD4 [2]): 0.00019 s⁻¹ | kon (recombinant human PAD4 [2]): 2e+06 M⁻¹ s⁻¹ | ECM Score (1 µM) [6]: 2 | Kd (recombinant human PAD4 [3]): 0.1 nM | koff (recombinant human PAD4 [3]): 0.00016 s⁻¹ | kon (recombinant human PAD4 [3]): 2e+06 M⁻¹ s⁻¹

B4: mumAb (antibody, mouse IgG1, kappa, V domains shown)
VH: EVQLQQPGAELVKPGASVKLSCKASDHTFTTYWIHWVKQRPGRGLEWIGRIGPNSGGSKYNEKFRTKATLTVDKPSSTAYMQLSSLKSEDSAVYFCAFSNYLDYLDYWGQGTTLTVSS
VL: DIVLTQSPASLAVSLGQRATISCKASQSVDHDGEGYMNWYQQKPGQPPKLLIYAASNLESGIPARFSGSGSGTDFTLNIHPVEEEDAATYYCQQINEDPYTFGGGTKLEIKR
notes: Formatted as mIgG1-D265A; also called anti-murine PAD4 mAb; mouse anti-mPAD4 mumAb antibody
Kd (mouse PAD4 [7]): 0.7 nM | koff (mouse PAD4 [7]): 0.0002 s⁻¹ | kon (mouse PAD4 [7]): 290000 M⁻¹ s⁻¹ | IC50, mPAD4 citrullination of peptide …, RapidFire MS, 50 nM mPAD4 (mouse PAD4 [8]): 13.2 nM
